According to paper doi:10.1101/2020.11.13.381350 (bioRxiv, 2020):
Values joined by “and” are separate entries in the source; they are usually repeats but may differ in a detail not shown here. Equal values may be shown once.

Target: the molecule itself
Experiment: cross-linking

B1: 6xHis-WT-mVP40 (Marburg virus matrix protein VP40, wild type) (natural protein)
chain: MASSSNYNTYMQYLNPPPYADHGANQLIPADQLSNQQGITPNYVGDLNLDDQFKGNVCHAFTLEAIIDISAYNERTVKGVPAWLPLGIMSNFEYPLAHTVAALLTGSYTITQFTHNGQKFVRVNRLGTGIPAHPLRMLREGNQAFIQNMVIPRNFSTNQFTYNLTNLVLSVQKLPDDAWRPSKDKLIGNTMHPAVSIHPNLPPIVLPTVKKQAYRQHKNPNNGPLLAISGILHQLRVEKVPEKTSLFRISLPADMFSVKEGMMKKRGENSPVVYFQAPENFPLNGFNNRQVVLAYANPTLSAV
  stoichiometry N: 6 and 4
